# Assay results reported in paper PMC4399976 (The Biochemical journal, 2015).
# B1: tissue inhibitor of metalloproteinases-1 (TIMP-1), recombinant human (natural protein)
# chain: not shown
# Target: wild-type (WT) proMMP-9 trimer (reduction-sensitive homomultimer) (human, UniProt P14780 20-707)
# Assay: SPR
# Sequence of wild-type (WT) proMMP-9 trimer (reduction-sensitive homomultimer) (P14780 20-707): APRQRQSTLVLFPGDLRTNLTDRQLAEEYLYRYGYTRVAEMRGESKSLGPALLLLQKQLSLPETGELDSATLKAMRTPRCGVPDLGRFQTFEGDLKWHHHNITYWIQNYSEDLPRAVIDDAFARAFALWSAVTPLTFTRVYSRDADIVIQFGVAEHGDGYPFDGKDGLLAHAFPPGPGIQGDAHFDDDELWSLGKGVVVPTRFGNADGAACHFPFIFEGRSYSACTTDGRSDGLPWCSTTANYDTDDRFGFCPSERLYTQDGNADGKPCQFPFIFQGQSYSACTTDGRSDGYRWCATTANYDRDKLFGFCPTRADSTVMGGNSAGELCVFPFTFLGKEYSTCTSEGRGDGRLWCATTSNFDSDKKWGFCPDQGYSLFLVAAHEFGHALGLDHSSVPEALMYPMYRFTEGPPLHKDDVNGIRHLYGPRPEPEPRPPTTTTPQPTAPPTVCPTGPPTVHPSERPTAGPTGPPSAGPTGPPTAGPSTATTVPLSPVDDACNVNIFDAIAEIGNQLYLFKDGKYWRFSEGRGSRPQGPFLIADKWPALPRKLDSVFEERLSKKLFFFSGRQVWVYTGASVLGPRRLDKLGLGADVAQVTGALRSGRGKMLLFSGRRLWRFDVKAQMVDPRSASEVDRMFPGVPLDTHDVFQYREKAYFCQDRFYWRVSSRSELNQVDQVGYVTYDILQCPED
binder,measurement,value
B1,Kd,0.4 nM
